Measurements from article PMC12742838, “Discovery and structural investigation of Varicella-Zoster virus gE-neutralizing antibodies isolated from a convalescent patient” (Protein & Cell, 2025).

B1: Fab WLL-1 (Fab, V domains shown)
VH: QITLKESGPTLVKPTQTLTLTCTFSGFSLTNTEMTVGWIRRPPGKALEWLALIYWDDDKRYSPSLRSRLTITKDTSKNQVVLKMTNMDPVDTATYYCARLSLRLLTFDYWGQGTLVTVSS
VL: SYVVTQPPSVSVAPRQTARITCGGSNIGSKSVHWHQQKPGQAPVLVVYDDSDRPSGIPERFSGSNSGNTATLTITRVEAGDEADYYCQVWDSSGDHPLFGGGTKLTVL
B2: Varicella-zoster virus glycoprotein E (gE), recombinant protein, tag not told for these experiments (natural protein)
chain: SVLRYDDFHTDEDKLDTNSVYEPYYHSDHAESSWVNRGESSRKAYDHNSPYIWPRNDYDGFLENAHEHHGVYNQGRGIDSGERLMQPTQMSAQEDLGDDTGIHVIPTLNGDDRHKIVNVDQRQYGDVFKGDLNPKPQGQRLIEVSVEENHPFTLRAPIQRIYGVRYTETWSFLPSLTCTGDAAPAIQHICLKHTTCFQDVVVDVDCAENTKEDQLAEISYRFQGKKEADQPWIVVNTSTLFDELELDPPEIEPGVLKVLRTEKQYLGVYIWNMRGSDGTSTYATFLVTWKGDEKTRNPTPAVTPQPRGAEFHMWNYHSHVFSVGDTFSLAMHLQYKIHEAPFDLLLEWLYVPIDPTCQPMRLYSTCLYHPNAPQCLSHMNSGCTFTSPHLAQRVASTVYQNCEHADNYTAYCLGISHMEPSFGLILHDGGTTLKFVDTPESLSGLYVFVVYFNGHVEAVAYTVVSTVDHFVNAIEERGFPPTAGQPPATTKPKEITPVNPGTSPLLR
notes: glycoprotein E (gE) of Varicella-zoster virus; Methods are in the Supplementary Materials; also called gE protein
B3: Fab WLL-28 (Fab, V domains shown)
VH: EVQLVQSGAEVKKPGEPLKISCKASGYNFANFWVGWVRQMPGRGLEWMGVIFPADSDTRYSPSFQGQVIISADKSTNTAYLQWSSLKASDSAMYYCARHVRGSLWGGGGYWGQGTLVTVSS
VL: EIVMTQSPSTLSVSPGEGATLSCRASQSVNNDLAWYQQKPGQAPRLLINGASTRATGIPARFTGSGSGTEFTLTISSLQPEDFAVYFCQQYNDWPRTFGQGTKVEIK

Columns and labels:
[1] = biological target: T1, Varicella-zoster virus glycoprotein E (gE), recombinant protein, tag not told for these experiments (Varicella-zoster virus, UniProt P09259); assay: cryo-EM structure; ternary complex Fab WLL-1/Fab WLL-28/gE, resolved at 3.36 Å; only the gI-binding domain of gE is seen; conditions: both partners purified
T1 construct: glycoprotein E (gE) of Varicella-zoster virus; Methods are in the Supplementary Materials; also called gE protein

[2] = biological target: T2, recombinant soluble insulin-degrading enzyme (rIDE, residues 42-1,019) (UniProt P14735 42-1019); assay: SPR; dissociation constant of gE to rIDE; conditions: both partners purified
T2 construct: insulin-degrading enzyme (IDE), cellular receptor of VZV gE, residues 42-1,019; Tags and host are probably in the Supplementary Materials; also called rIDE receptor protein; source: recombinant, purified

| Binder | binding result [1] | Kd [2] |
| --- | --- | --- |
| B1 | binds | – |
| B2 | – | ~10 nM |
| B3 | binds | – |
